For two molecules, IC50, IC80 and MPI results are on record in patent US20240117018A1.

Some results are limits rather than exact numbers.

Assay in all cases: cell-based or functional assay
Experiment [1] concerns the target TRO.11 Env pseudovirus (HIV-1).
In experiment [2] the target is 62357_14_D3_4589 Env pseudovirus (HIV-1).
Experiment [3] addresses 7030102001E5(Rev-) Env pseudovirus (HIV-1).
For experiment [4], the target named is 0260.v5.c36 Env pseudovirus (HIV-1).

B1: N49P23 (antibody, V domains shown)
VH: QVRLVQSGAGARKTGASMKLSCSTSGYTFTTHHGHFINWVRQARGQGLEWMGWMNPMTGQMNIEGKFQGRVTLTRDIYSDTAYMEMTRLTTGDTGTYYCARGDFGQNYPFHYWGQGSLVIVSS
VL: LSALTQPASVSGSPGQSVTISCSGTNRYLVSWYQQHPDKAPKLIIYDDNKRPSGISDRFSASRPDDTASLTISGLQTGDEATYWCASYERFGGGTRLTVLS
Consider B1, for which the IC50 in experiment [1] is 0.094 µg/mL; in experiment [2], 0.057 µg/mL; in experiment [3], 0.172 µg/mL; in experiment [4], 0.261 µg/mL. Besides, the IC80 in experiment [1] turned out to be 0.336 µg/mL; in experiment [2], 0.76 µg/mL; in experiment [3] it was 0.797 µg/mL; in experiment [4], 0.919 µg/mL. For the same molecule, the MPI in experiment [1] came out at 100; in experiment [2], 95; in experiment [3] it was 100; in experiment [4], 100.

B2: N49P22 (antibody, V domains shown)
V domain 1: HIQLLQSGPQVKKSGDTVRISCETSGYNFVDSRIHWVRQTPEKRLRWMGWINPLQGGVNYAPEFQGRIRMTRDTFIDTVYVDLSGLTPADTAYYYCARGIDGKSYPFHFWGHGTRVTVFS
V domain 2: RFALTQPASVSGSPGQTITITCAGGSVSWFHFPPGKTPRLIIYESSKRPSGVSPRFSGSQSGSTASLIISGLQSDDEGTYFCSILEFFGRGTLVTVLS
For the molecule B2, the IC50 was 0.283 µg/mL in experiment [1], over 50 µg/mL in experiment [2], over 50 µg/mL in experiment [3] and 1.67 µg/mL in experiment [4]. Further, the IC80 in experiment [1] was 1.36 µg/mL; in experiment [2], over 50 µg/mL; in experiment [3] it was over 50 µg/mL; in experiment [4], 14.4 µg/mL. The MPI in experiment [1] was determined as 99; in experiment [2], 13; in experiment [3], 21; in experiment [4], 93.
